Experimental data reported in patent US20110009597A1, “RECOMBINANT GANODERMA LUCIDIUM IMMUNOMODULATORY PROTEIN (rLZ-8) AND USES THEREOF” (priority 2008, published 2011).

Legend:
[1] = tested on: NB4; assay: Annexin V-FITC flow cytometry, apoptosis of NB4; format: cell-based; conditions: Annexin V/PI
Experimental: FACS Calibur flow cytometry, U.S. Becton-Dickinson.Coompany. NB4, HL-60. rLZ-8 is prepared with IMDM culture medium containing 2% FCS into the preparation of 0.1 μg·ml^−1, 0.5 μg·ml^−1, 2.5 μg·ml^−1, arsenic trioxide (As2O3) 0.5 μg·ml^−1 AnnexinV-FITC kit: combining buffer solution 4×; Propidium iodide solution (PI), 20 μg·ml−1, 0.2 ml; recombinant human Annexin V/FITC, 0.1 ml.
Establish NB4 normal control group, positive drug group (As2O3 0.5 μg·ml^−1), protein low-dose group (0.1 μg·ml^−1), medium-dose group (0.5 μg·ml^−1), high-dose group, (2.5 μg·ml^−1); establish HL-60 normal control group, protein low-dose group (0.1 μg·ml^−1), medium-dose group (0.5 μg·ml^−1), high-dose group, (2.5 μg·ml^−1).
Mix NB4 and HL-60 cell into 24-orifice plate respectively, 1 ml/hole supply rLZ-8 in different concentrates, set 3-orifice multipunches for each group. Put them in 37° C., 5% CO2 incubator for 24 h, collect the cells of each concentrate, washes the cells twice with pre-cooled PBS 4° C., with 250 μl binding buffer solution re-suspending cells and regulates the cell density to 1×10^6/ml, taking out 100 μl to 5 ml streaming tube, and add 5 μl Annexin V/FITC and 10 μl 20 μg·ml^−1 PI solution, after mixing put it in room temperature and lucifuged hatching 15 min, add 400 μl PBS by flow cytometry analysis.

[2] = tested on: mouse peritoneal H22 tumor cells; assay: H22 ascites tumor inhibition experiment; format: in vivo, Mice
Experimental: Mouse hepatoma cell strain H22, offered by our laboratory.
Treatment after 24 h of vaccination. […] Daily weighing, observe the weight changes of mice, drawing weight growth curves.

[3] = tested on: WBC; assay: Cyclophosphamide low-leucocyte rat model, WBC; format: in vivo, rats; parameters: unit not given here
Experimental: rLZ-8 preparation of sterile saline. Divide them into 20 μg·kg^−1, 10 μg·kg^−1, 5 μg·kg^−1, 2.5 μg·kg^−1, 1.25 μg·kg^−1, 0.625 μg·kg^−1, 0.31 μg·kg^−1 dose groups.
Genlei™ Scimax™ [Recombinant human granulocyte colony-stimulating factor injection (rhG-CSF)], production lot: 20060403; 75 μg/vial is prepared with sterile normal saline into the preparation of 9.45 μg·ml^−1, 0.1 ml/vial.
Cyclophosphamide (CP), the production lot number 050216; 200 mg/vial is prepared with sterile normal saline into the preparation of 20 mg·ml^−1, 0.1 ml/vial, namely, 49 mg·kg^−1.
Normal control group, protein low-dose group, protein medium-dose group, protein high-dose group, positive control group (Genlei™ Scimax™)
Excluding the normal control group (given same normal saline), each group of rats were given tail vein injection of cyclophosphamide, 20 mg·ml^−1, 0.1 ml/vial, for 3 consecutive days. On 3rd day, rat tail venous blood sampling, sent to Jilin University First Hospital laboratory, cell analyze the number of WBC. After successful modeling, they were given to the above groups respective dose of rLZ-8 and positive drugs (Genlei™ Scimax™) treatment, the normal control group and CP groups were given same normal saline, on the 3rd, 7th and 14th day of the treatment to draw venous blood from rats tail respectively, sent to Jilin University First Hospital testing the numbers of WBC. Compare WBC changes before and after the treatment for analysis of drug efficacy.

[4] = tested on: human red blood cells (A, B, O and AB blood type); assay: Red blood cell agglutination, human; format: cell-based
Experimental: A, B, O and AB blood type, from the healthy volunteers 2 ml respectively, SRBC (sheep red cell) 2 ml. Centrifuge the above RBC 1200 g·min^−1 for 10 min, clears the supernatant and wash with 5 ml PBS, repeat the above operation 3-5 times, and then uses 0.01 mol/L PBS suspension preparation of 1.5%. Prepare rLZ-8 with normal saline to final concentrations of 50 μg·ml^−1, 25 μg·ml^−1, 12.5 μg·ml^−1, 6.25 μg·ml^−1, 1.56 μg·ml^−1, 0.78 μg·ml^−1, 0.39 μg·ml^−1, 0.20 μg·ml^−1, 0.10 μg·ml^−1, 0.05 μg·ml^−1, 0.03 μg·ml^−1. Plant agglutinin (PHA) preparation Ibid.
Divide experiment subjects into rLZ-8 concentration groups, positive drug control, and normal control group.
On 96-orifice Hemagglutination board, we add A-type 1.5%, erythrocyte 25 μl/hole, and then add 0.2% gelatin, 75 μl/hole. Drug groups are added different concentrations of rLZ-8, till the final concentration as above-noted; positive drug control group PHA 25 μl/hole; normal control group PBS25μl/hole. 6 parallel control groups in each group. Shaking for 30 s under normal room temperature, 37° C. incubation, observe the subjects 1 h later. For B-type, AB-type, O-type, the same experiment methods are as SRBC (sheep red cell) above.

B1: rLZ-8: Recombinant Ganoderma Lucidum Immune Regulatory Protein expressed in Pichia pastoris (protein, UniProt P14945 2-111, looked up)
Immunomodulatory protein Ling …: SDTALIFRLAWDVKKLSFDYTPNWGRGNPNNFIDTVTFPKVLTDKAYTYRVAVSGRNLGVKPSYAVESDGSQKVNFLEYNSGYGIADTNTIQVFVVDPDTNNDFIIAQWN
Apoptosis rate ([1]; NB4, rLZ-8 0.1 μg·ml−1, 24 h): 21.0%
Apoptosis rate ([1]; NB4, rLZ-8 0.5 μg·ml−1, 24 h): 22.3%
Apoptosis rate ([1]; NB4, rLZ-8 2.5 μg·ml−1, 24 h): 34.0%
growth of peritoneal H22 tumor cells (body weight curve) ([2]; rLZ-8 0.25-1 mg·kg^−1 tail venous injection, 10 days): inhibited the mouse peritoneal H22 tumor cells growth
survival of H22 ascites mice ([2]; rLZ-8 groups vs negative control group): survive longer than the negative control group
WBC, 3rdday of medication ([3]; rLZ-8 0.31 μg·kg−1): 1.9 ± 0.17
WBC, 7thday of medication ([3]; rLZ-8 0.31 μg·kg−1): 13.5 ± 0.13
WBC, 14thday of medication ([3]; rLZ-8 0.31 μg·kg−1): 11.0 ± 0.31
WBC, 3rdday of medication ([3]; rLZ-8 0.62 μg·kg−1): 5.2 ± 0.14
WBC, 7thday of medication ([3]; rLZ-8 0.62 μg·kg−1): 12.8 ± 0.74
WBC, 14thday of medication ([3]; rLZ-8 0.62 μg·kg−1): 12.1 ± 0.24
WBC, 3rdday of medication ([3]; rLZ-8 1.25 μg·kg−1): 2.8 ± 0.12
WBC, 7thday of medication ([3]; rLZ-8 1.25 μg·kg−1): 11.0 ± 0.47
WBC, 14thday of medication ([3]; rLZ-8 1.25 μg·kg−1): 10.3 ± 0.45
WBC, 3rdday of medication ([3]; rLZ-8 2.5 μg·kg−1): 1.7 ± 0.18
WBC, 7thday of medication ([3]; rLZ-8 2.5 μg·kg−1): 12.8 ± 0.11
WBC, 14thday of medication ([3]; rLZ-8 2.5 μg·kg−1): 10.6 ± 0.29
WBC, 3rdday of medication ([3]; rLZ-8 5 μg·kg−1): 2.6 ± 0.64
WBC, 7thday of medication ([3]; rLZ-8 5 μg·kg−1): 17.6 ± 0.23
WBC, 14thday of medication ([3]; rLZ-8 5 μg·kg−1): 11.2 ± 0.26
WBC, 3rdday of medication ([3]; rLZ-8 10 μg·kg−1): 1.6 ± 0.71
WBC, 7thday of medication ([3]; rLZ-8 10 μg·kg−1): 15.8 ± 0.33
WBC, 14thday of medication ([3]; rLZ-8 10 μg·kg−1): 10.9 ± 0.21
WBC, 3rdday of medication ([3]; rLZ-8 20 μg·kg−1): 1.6 ± 0.33
WBC, 7thday of medication ([3]; rLZ-8 20 μg·kg−1): 15.8 ± 0.13
WBC, 14thday of medication ([3]; rLZ-8 20 μg·kg−1): 9.8 ± 0.19
agglutination of four types of human red blood cells (in words) [4]: not agglutinative
